Tests used:
[1] = pH 7.3
Procedure: The lipophilicity of the insulin derivatives relative to human insulin, k″rel, was measured on a LiChrosorb RP18 (5 μm, 250×4 mm) HPLC column by isocratic elution at 40° C. using mixtures of A) 0.1 M sodium phosphate buffer, pH 7.3, containing 10% acetonitrile, and B) 50% acetonitrile in water as eluents. The elution was monitored by following the UV absorption of the eluate at 214 nm. Void time, t0, was found by injecting 0.1 mM sodium nitrate. Retention time for human insulin, thuman, was adjusted to at least 2t0 by varying the ratio between the A and B solutions. k′rel=(tderivative−t0)/(thuman−t0).

porcine albumin = porcine albumin (Sus scrofa, UniProt P08835); assay: Binding to porcine albumin, in vitro assay; conditions: relative to the reference compound EXA
Procedure: The binding to porcine albumin was determined in an in vitro assay. The values given in Table 1 under the heading “Albumin binding” are relative to the reference compound EXA.

[2] = pig, in vivo, sc
Excerpt: Determination of Disappearance Half-life, T50%, from the Injection Site after Subcutaneous Injection of an Insulin Derivative in Pigs.

porcine albumin, sequence (P08835 25-607): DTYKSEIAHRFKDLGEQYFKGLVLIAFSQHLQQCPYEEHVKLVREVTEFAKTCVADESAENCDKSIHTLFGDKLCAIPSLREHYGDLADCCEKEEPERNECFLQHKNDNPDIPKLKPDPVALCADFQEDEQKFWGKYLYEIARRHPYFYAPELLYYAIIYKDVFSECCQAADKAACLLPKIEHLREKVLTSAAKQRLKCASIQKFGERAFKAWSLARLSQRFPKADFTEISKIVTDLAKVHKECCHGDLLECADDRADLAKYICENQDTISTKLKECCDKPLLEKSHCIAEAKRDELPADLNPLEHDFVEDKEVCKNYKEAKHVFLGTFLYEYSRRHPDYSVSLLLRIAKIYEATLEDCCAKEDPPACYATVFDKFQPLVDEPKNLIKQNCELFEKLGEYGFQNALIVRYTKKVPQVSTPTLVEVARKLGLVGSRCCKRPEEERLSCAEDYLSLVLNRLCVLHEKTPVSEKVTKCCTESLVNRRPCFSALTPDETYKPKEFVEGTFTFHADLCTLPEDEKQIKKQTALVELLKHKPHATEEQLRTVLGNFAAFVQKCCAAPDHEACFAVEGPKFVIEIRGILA

| Albumin binding (porcine albumin) | Substance | Lipophilicity [1] | T50% [2] |
| --- | --- | --- | --- |
| 5 | N^εB29-(CO—(CH2)14—COOH) des(B30) Human Insulin [EX2] | 2.3 | 10 h |
| 36 | N^εB29-(CO—(CH2)16—COOH) des(B30) Human Insulin [EX4] | 7.2 | 17.1 h |
| 51 | N^εB29-(CO—(CH2)18—COOH) des(B30) Human Insulin [EX3] | 17 | 18 h |
| 0.7 | N^εB29-(CO—(CH)12—COOH) des(B30) human insulin [EX1] | 1.4 | 5 h |
| 0.9 | N^εB29-hexadecanoyl desB30 insulin [EXB, reference compound] | 346 | 12 h |
| 1 | N^εB29-tetradecanoyl desB30 insulin [EXA, reference compound] | 113 | 14 h |
